In PMC12482190, “Characterization of PPE19 as a novel mediator of Mycobacterium tuberculosis-macrophage interactions” (mSphere, 2025):

Molecular target: T1, PPE19-GST-bio (biotinylated PPE19 with an N-terminal GST tag) (Mycobacterium tuberculosis H37Rv, UniProt P9WI25 1-396)
T1 construct: also called biotinylated PPE19-GST; not shown: GST, N-terminal, kept
T1 sequence: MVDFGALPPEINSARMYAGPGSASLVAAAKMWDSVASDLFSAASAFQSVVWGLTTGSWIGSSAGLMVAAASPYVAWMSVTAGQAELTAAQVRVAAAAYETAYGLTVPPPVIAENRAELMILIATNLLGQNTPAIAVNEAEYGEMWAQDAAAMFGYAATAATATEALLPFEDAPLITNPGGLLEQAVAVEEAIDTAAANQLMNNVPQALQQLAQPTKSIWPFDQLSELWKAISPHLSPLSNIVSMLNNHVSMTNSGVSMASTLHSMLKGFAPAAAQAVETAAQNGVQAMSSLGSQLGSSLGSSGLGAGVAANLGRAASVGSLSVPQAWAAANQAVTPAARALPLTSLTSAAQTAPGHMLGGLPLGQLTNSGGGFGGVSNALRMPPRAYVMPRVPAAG
Experiment: AlphaScreen or HTRF
Details: both partners purified

B1: PE13-His (PE13 with a polyhistidine affinity tag) (natural protein)
chain: MSFVMAYPEMLAAAADTLQSIGATTVASNAAAAAPTTGVVPPAADEVSALTAAHFAAHAAMYQSVSARAAAIHDQFVATLASSASSYAATEVANAAAAS
- binding result: binds
